Source: article PMC3041752

Experiments:
[1] = target: budding yeast Proliferating Cell Nuclear Antigen (PCNA) (budding yeast); assay: AUC; sedimentation velocity, 100 µM protein (monomer concentration); trimer to monomers
[2] = target: budding yeast Proliferating Cell Nuclear Antigen (PCNA) (budding yeast); assay: SEC-MALS; gel filtration coupled to multi-angle light scattering; 3 or 0.3 mg/ml (~100 or 10 µM) in 20 mM sodium phosphate, 150 mM NaCl, 0.03% (w/v) sodium azide, pH 7.0
[3] = target: human Proliferating Cell Nuclear Antigen (PCNA) (human); assay: AUC; sedimentation velocity, 100 µM protein (monomer concentration); trimer to monomers
[4] = target: human Proliferating Cell Nuclear Antigen (PCNA) (human); assay: SEC-MALS; gel filtration coupled to multi-angle light scattering; 3 or 0.3 mg/ml (~100 or 10 µM) in 20 mM sodium phosphate, 150 mM NaCl, 0.03% (w/v) sodium azide, pH 7.0

population of monomers in equilibrium with the trimer [1]	stoichiometry N [1]	population of species with the molecular weight of a dimer of trimers [2]	stoichiometry N [2]	population of monomers in equilibrium with the trimer [3]	stoichiometry N [3]	population of species with the molecular weight of a dimer of trimers [4]	stoichiometry N [4]	Substance
< 3%	3	< 4%	3	–	–	–	–	budding yeast Proliferating Cell Nuclear Antigen (PCNA) (natural protein)
–	–	–	–	< 3%	3	< 4%	3	human Proliferating Cell Nuclear Antigen (PCNA) (natural protein)
